Positions of bridges follow the written chain, without caps; N, C: chain ends. No end group written: not given here. *: point of attachment. NHNH2 = NN*
Key:
[1] = target: REFACTO® factor VIII-like polypeptide (amino acids 1-743 and 1638 through 2332 of human factor VIII) (human) (UniProt P00451); assay: phage ELISA, anti-M13-HRP
[2] = target: REFACTO® factor VIII-like polypeptide (amino acids 1-743 and 1638 through 2332 of human factor VIII) (human) (UniProt P00451); assay: phage ELISA
[3] = target: REFACTO® factor VIII-like polypeptide (amino acids 1-743 and 1638 through 2332 of human factor VIII) (human) (UniProt P00451); assay: affinity column of immobilised peptide; fractions by factor VIII activity assay
[4] = target: REFACTO® factor VIII-like polypeptide (amino acids 1-743 and 1638 through 2332 of human factor VIII) (human) (UniProt P00451); assay: affinity column of immobilised peptide; fractions by RP-HPLC

REFACTO® factor VIII-like polypeptide (amino acids 1-743 and 1638 through 2332 of human factor VIII) (human), sequence (P00451 20-762, chain 1 of 2): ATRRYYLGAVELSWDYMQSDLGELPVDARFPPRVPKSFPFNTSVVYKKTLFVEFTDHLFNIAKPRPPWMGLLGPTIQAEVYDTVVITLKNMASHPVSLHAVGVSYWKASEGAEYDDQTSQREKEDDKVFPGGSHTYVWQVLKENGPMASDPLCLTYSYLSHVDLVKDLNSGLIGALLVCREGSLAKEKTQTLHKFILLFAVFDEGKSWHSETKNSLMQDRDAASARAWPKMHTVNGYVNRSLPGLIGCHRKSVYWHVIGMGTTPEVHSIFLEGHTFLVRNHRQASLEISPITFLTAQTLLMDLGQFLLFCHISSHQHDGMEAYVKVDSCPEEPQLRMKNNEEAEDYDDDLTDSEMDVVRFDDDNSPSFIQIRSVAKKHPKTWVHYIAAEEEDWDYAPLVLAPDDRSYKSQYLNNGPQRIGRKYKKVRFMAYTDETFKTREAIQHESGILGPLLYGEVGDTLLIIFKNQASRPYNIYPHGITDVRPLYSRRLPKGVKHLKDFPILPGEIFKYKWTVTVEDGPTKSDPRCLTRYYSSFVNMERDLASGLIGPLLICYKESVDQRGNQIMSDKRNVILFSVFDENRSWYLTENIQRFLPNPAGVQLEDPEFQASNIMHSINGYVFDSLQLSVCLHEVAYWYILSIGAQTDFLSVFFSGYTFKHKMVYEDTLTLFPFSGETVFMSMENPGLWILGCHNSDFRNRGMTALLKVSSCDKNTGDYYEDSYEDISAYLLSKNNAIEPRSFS
REFACTO® factor VIII-like polypeptide (amino acids 1-743 and 1638 through 2332 of human factor VIII) (human), sequence (P00451 1657-2351, chain 2 of 2): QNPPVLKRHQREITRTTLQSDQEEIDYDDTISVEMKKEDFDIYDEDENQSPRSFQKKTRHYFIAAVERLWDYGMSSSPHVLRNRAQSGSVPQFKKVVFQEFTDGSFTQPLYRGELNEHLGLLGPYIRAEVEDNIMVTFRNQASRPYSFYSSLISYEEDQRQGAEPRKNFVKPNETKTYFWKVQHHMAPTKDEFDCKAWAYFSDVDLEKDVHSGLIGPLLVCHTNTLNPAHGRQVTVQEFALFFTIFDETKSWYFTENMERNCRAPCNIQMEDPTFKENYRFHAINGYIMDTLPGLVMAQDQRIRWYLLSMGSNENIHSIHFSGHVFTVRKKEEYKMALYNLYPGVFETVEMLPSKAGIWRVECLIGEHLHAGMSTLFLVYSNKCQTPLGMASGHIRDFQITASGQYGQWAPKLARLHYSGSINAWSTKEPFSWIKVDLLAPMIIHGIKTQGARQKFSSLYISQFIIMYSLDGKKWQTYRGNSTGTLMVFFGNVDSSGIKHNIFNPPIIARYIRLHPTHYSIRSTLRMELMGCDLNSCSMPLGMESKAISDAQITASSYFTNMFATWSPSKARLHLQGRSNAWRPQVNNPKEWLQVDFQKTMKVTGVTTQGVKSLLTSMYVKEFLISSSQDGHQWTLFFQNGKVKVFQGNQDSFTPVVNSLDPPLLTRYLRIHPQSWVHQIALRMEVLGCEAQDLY

| Binder | ELISA signal [1] | R (ratio of the ELISA score with target present to the ELISA score without target) [2] | also measured |
| --- | --- | --- | --- |
| HPCGAWLRPCYN [TN8 isolate 08 (phage-displayed peptide, SEQ ID NO: 20)] | 1 OD630 | 20 | – |
| RLCSWVSPCSA [TN7 isolate C5/G10 (phage-displayed peptide, SEQ ID NO: 9)] | 0.5 OD630 | 10 | – |
| FCWVFNFSHCS [TN9 isolate 03 (phage-displayed peptide, SEQ ID NO: 26)] | 1.1 OD630 | 24 | – |
| FCWVFPFQHCA [TN9 isolate 09 (phage-displayed peptide, SEQ ID NO: 29)] | 1.1 OD630 | 24 | – |
| HSCGSWLFPCFA [TN7 isolate A06 (phage-displayed peptide, SEQ ID NO: 4)] | 0.5 OD630 | 10 | – |
| HACGSWFRPCHA [TN8 isolate 07 (phage-displayed peptide, SEQ ID NO: 15)] | 0.4 OD630 | 6 | – |
| FCHVFHFSHCD [TN9 isolate 01 (phage-displayed peptide, SEQ ID NO: 24)] | 0.2 OD630 | – | – |
| FHCIGVWFCLH [TN7 isolate A09 (phage-displayed peptide, SEQ ID NO: 8)] | 0.1 OD630 | – | – |
| FCWVFAFDHCH [TN9/1 isolate … (SEQ ID NO: 71)] | – | 24 | – |
| HPCGSWLRPCLH [TN8 isolate 10 (phage-displayed peptide, SEQ ID NO: 10)] | 1 OD630 | 16 | – |
| AEGTGDFCWVFPFQHCADPGPEGGGS-NHNH2 (disulfide 8-16 (inferred)) [Affinity ligand CS-459] | – | – | % recovery in Elution A [3]: 31.2%; % recovery in Flow [3]: 6.4%; % recovery in Elution A [4]: 42.1%; % recovery in Elution B [4]: 0%; % recovery in Flow [4]: 1.6%; % recovery in pH 2 [4]: 0% |
| FCWVFPFHHCF [TN9 isolate 06 (phage-displayed peptide, SEQ ID NO: 30)] | 0.3 OD630 | 6 | – |
| HPCGSWFNPCAH [TN8 isolate 02 (phage-displayed peptide, SEQ ID NO: 13)] | 0.3 OD630 | 8 | – |
| HLCGAWFRPCDA [TN8 isolate 02 (phage-displayed peptide, SEQ ID NO: 16)] | 0.4 OD630 | 6 | – |
| FCWVFPFNHCS [TN9 isolate 12 (phage-displayed peptide, SEQ ID NO: 28)] | 1 OD630 | 18 | – |
| AEGTGDFHCIGVWFCLHDPGPEGGGS-NHNH2 (disulfide 9-15 (inferred)) [Affinity ligand CS-455] | – | – | % recovery in Elution A [3]: 1.3%; % recovery in Flow [3]: 61.6%; % recovery in Elution A [4]: 1.4%; % recovery in Elution B [4]: 0%; % recovery in Flow [4]: 65.8%; % recovery in pH 2 [4]: 0% |
| HLCFAWFRPCDA [TN8 isolate 12 (phage-displayed peptide, SEQ ID NO: 17)] | 0.4 OD630 | 8 | – |
| HGCGAWFRPCHA [TN8 isolate 01 (phage-displayed peptide, SEQ ID NO: 18)] | 0.2 OD630 | – | – |
| FCWVHPFAHCL [TN9 isolate 02 (phage-displayed peptide, SEQ ID NO: 23)] | 0.2 OD630 | – | – |

| Binder | ELISA signal [1] | R (ratio of the ELISA score with target present to the ELISA score without target) [2] | also measured |
| --- | --- | --- | --- |
| HRCGSWLHPCLA [TN8 isolate 11/G10 (phage-displayed peptide, SEQ ID NO: 21)] | 0.3 OD630 | 6 | – |
| FCWVFQFRHCH [TN9/1 isolate … (SEQ ID NO: 77)] | – | 8 | – |
| AEGTGDHPCGSWLRPCLHDPGPEGGGS-NHNH2 (disulfide 9-16 (inferred)) [Affinity ligand CS-453] | – | – | % recovery in Elution A [3]: 26.4%; % recovery in Flow [3]: 0%; % recovery in Elution A [4]: 43.2%; % recovery in Elution B [4]: 0%; % recovery in Flow [4]: 0%; % recovery in pH 2 [4]: 0% |
| AEGTGDFGCSWLFPCPFDPGPEGGGS-NHNH2 (disulfide 9-15 (inferred)) [Affinity ligand CS-456] | – | – | % recovery in Elution A [3]: 43%; % recovery in Flow [3]: 4.8%; % recovery in Elution A [4]: 44.8%; % recovery in Elution B [4]: 0%; % recovery in Flow [4]: 3.4%; % recovery in pH 2 [4]: 0% |
| HPCGAWFNPCPR [TN8 isolate 01 (phage-displayed peptide, SEQ ID NO: 19)] | 0.2 OD630 | – | – |
| HPCGSWFRPCFH [TN8 isolate 02 (phage-displayed peptide, SEQ ID NO: 14)] | 0.7 OD630 | 16 | – |
| RLCSWISPCSA [TN7 isolate D04 (phage-displayed peptide, SEQ ID NO: 7)] | 0.3 OD630 | 6 | – |
| FCHVFNFVHCS [TN9 isolate 01 (phage-displayed peptide, SEQ ID NO: 31)] | 0.5 OD630 | 8 | – |
| RGCGSWLRPCLD [TN8 isolate 05 (phage-displayed peptide, SEQ ID NO: 11)] | 0.2 OD630 | – | – |
| AEGTGDFCWVFPFHHCFDPGPEGGGS-NHNH2 (disulfide 8-16 (inferred)) [Affinity ligand CS-460] | – | – | % recovery in Elution A [3]: 0%; % recovery in Flow [3]: 28.4%; % recovery in Elution A [4]: 28.8%; % recovery in Elution B [4]: 0%; % recovery in Flow [4]: 24.6%; % recovery in pH 2 [4]: 0% |
| PHCNWLFPCSL [TN7 isolate D03 (phage-displayed peptide, SEQ ID NO: 6)] | 0.2 OD630 | – | – |
| FGCSWLFPCPF [TN7 isolate A08 (phage-displayed peptide, SEQ ID NO: 5)] | 0.4 OD630 | 8 | – |
| FCHVFPFLHCD [TN9 isolate 11 (phage-displayed peptide, SEQ ID NO: 32)] | 0.2 OD630 | – | – |
| AEGTGDHLCGAWFRPCDADPGPEGGGS-NHNH2 (disulfide 9-16 (inferred)) [Affinity ligand CS-454] | – | – | % recovery in Elution A [3]: 42.4%; % recovery in Flow [3]: 2.2%; % recovery in Elution A [4]: 45.1%; % recovery in Elution B [4]: 0%; % recovery in Flow [4]: 2.5%; % recovery in pH 2 [4]: 0% |
| HPCGSWLHPCAA [TN8 isolate 04 (phage-displayed peptide, SEQ ID NO: 12)] | 0.3 OD630 | 6 | – |
| FCWVFNWVHCD [TN9/1 isolate … (SEQ ID NO: 75)] | – | 14 | – |
| AEGTGDFCWVFAFDHCHDPGPEGGGS-NHNH2 (disulfide 8-16 (inferred)) [Affinity ligand CS-458] | – | – | % recovery in Elution A [3]: 55.6%; % recovery in Flow [3]: 1.4%; % recovery in Elution A [4]: 54.3%; % recovery in Elution B [4]: 0%; % recovery in Flow [4]: 1.8%; % recovery in pH 2 [4]: 0% |
| FCWVFPFNHCD [TN9 isolate 02 (phage-displayed peptide, SEQ ID NO: 27)] | 0.4 OD630 | 8 | – |
